Laboratory results: PMC6779467

Target: Hsf1-13xMyc (S. cerevisiae) (UniProt P10961)
Experiment: cross-linking; in vivo site-specific photo-crosslinking (UV-A, 1 hr on ice) from pBPa at position 423 of Ssa1-HA; cells grown at 30 C or heat shocked 3 min at 43 C; western with anti-HA and anti-Myc

## Ssa1_(E423BPa)-HA (from UniProt P10591 1-642) (natural protein)
  decrease of Hsf1-Ssa1 crosslinking after heat shock (3 min at 43 C) against cells at 30 C: 77%
